Laboratory results: the DeepSol protein solubility set

Assay: soluble on expression in E. coli; label from the status in PepcDB or PDB records

| Sequence | soluble on expression in E. coli |
| --- | --- |
| MAAEDELQLPRLPELFETGRQLLDEVEVATEPAGSRIVQEKVFKGLDLLEKAAEMLSQLDLFSRNEDLEEIASTDLKYLLVPAFQGALTMKQVNPSKRLDHLQRAREHFINYLTQCHCYHVAEFELPKTMNNSAENHTANSSMAYPSLVAMASQRQAKIQRYKQKKELEHRLSAMKSAVESGQADDERVREYYLLHLQRWIDISLEEIESIDQEIKILRERDSSREASTSNSSRQERPPVKPFILTRNMAQAKVFGAGYPSLPTMTVSDWYEQHRKYGALPDQGIAKAAPEEFRKAAQQQEEQEEKEEEDDEQTLHRAREWDDWKDTHPRGYGNRQNMGAAAAAALEHHHHHH | not soluble |
| MTCLSRDWATAQRLVEWALASTRCECFNVDSNFMAGLCLVENPTKQHYSFEVRKQVVDRFNAGQSKMDLAREFGLSSDQLVSSWVRAWRAGGDEALRPKPKGRPKGSASSKPLTEEDRLRREVEKLRAENAYLKKLRDLRNQRRS | not soluble |
| QDSKVFDPFLAAITPEIMPVKGKLAEKALPLIDQQLQGQPGSTVLLVSDGVNPATIKQYQAYFAGKPYQLLILAAGNTDIVSNNPMDLDSLQKLASQTNGRLVEVTVDNSDIEQLNRYVERNMQLNGESSMPWKD | not soluble |
| MAPSQPTQNAQTVSSVMTETPTYTSSSRSVESTAGTIAASEEATMTLLENSSGDPGSDSGGARYSLNSLKVSEQAAANAVLKAVLNDVSYQEFADSSYLEITGTPSADGTWGISFGGPSESASVEFSDGSISFSPVDMTVPATRLPQMGAFYETLTEEQLGMLETGLAVSTVDSSQQEMLLDLVSNSIGLADTETTATAISKIRATLSETYLFGTPDGLTLALSGPHVDFEVSHQGSTAKITYRDPSTDTLTAEDRVDTASVAAAPPEVVLEHHHHHH | soluble |
| MGSDKIHHHHHHMKKTSFIYLLLLIALGLSSCQQEKTFKVLQFNIWQEGAVVKGGFDAIADEIVRSNADFVTLSEVRNYHQTRFCDRIVEALQQRGQTYYSFYTEDSGLLSRYPITDSTTVYPLNDDRGSMYKAITHIGDTEVALYTAHLDYRNCAYYDARGYDGNTWDEEPPVTNLDTLLWLNEQSVRDDAIACFLKEAKKDREAGRIVILGGDFNEPSHLDWTEATKDMRDHQGLVVPWHVSVMLEKDGFKDTYREIFPNPVTHPGLTCPADCKDIALEKLVWSPKADDRDRIDFIHYAPFEGLTLTDVCIIGPKGDILRGQRETEETSDPIMTPLGIWPTDHKAVLATFHLK | not soluble |
| ELLVVTGMSGAGKSLVIQSLEDMGFFCVDNLPPVLLPKFVELMAQGNPSLQKVAIAIDLRGKELFKSLVKEIDIIKSRNDVILDVMFLEAKTEKIISRYKESRRAHPLNEQGQRSLIDAINEEREHLSEIRSIANYVIDTTKLKPKELKQRISKFYLDENFETFTINVTSFGFKHGIQMDADLVFDVRFLPNPYYVEELRPFTGLDEPVYNYVMKWKETQIFFDKLTDLLKFMIPGYKKEGKSQLVIAIGCTGGQHRSVALAKRLAEYLNEIFEYNVYVHHRDAHIE | not soluble |
| SSQQRPARKLPSLLLDPTEETVRRRCRDPINVEGLLPSKIRINLEDNVQYVSMRKALKVKRPRFDVSLVYLTRKFMDLVRSAPGGILDLNKVATKLGVRKRRVYDITNVLDGIDLVEKKSKNHIRWIGSDLSNFGAVPQQKKLQEELSDLSAMEDALDELIKDCAQQLFELTDDKENERLAYVTYQDIHSIQAFHEQIVIAVKAPAETRLDVPAPREDSITVHIRSTNGPIDVYLCEVEQGQTSNKRSEGVGTSSSESTHPEGPEEEENPQQSEELLEVSN | soluble |
| MKKVAVLLAPGFEEAEAIVTLDILRRLHIDVETLACAESRAVVSYHDIPMVADSTLSERQQALFDAVVLPGGPQGSANLAANPAVIAFVARHDAAGKLICPICSAAARVLGAHGLLKGRRYVCSGDLWKAVPEGVYVDAPVVEDGNLISGKGLGHVFDFALTLSARLLGDDAPVREQAEHIYYPW | not soluble |
| MSLAPIRLALIEGLSGPFANAGEAVDRNLRIAIEGVNARGGVRLPDGRHPLALVRFDSKNMVDESLLQLQAASDAGIRFVLQGNSSAAAAALSASIARHNDRAPDARMLFLNYAAVDPALTNEACSFWHFRFDASADMRMHALTEVIRADPSVKQVYLIGQDYTFGRQVAQLARRQLGEKRPDIAIAGEVLHPIGKVKDFAPYVARIAASGADAVITGNWGNDLTLLVKAARDAGLKARFFTFYGNSLGAPGAMGEAGVGRVVAVAEWHPNLGGTGSDAFYKAFRARYPAPVDDYPLLRDQMMIDLLATAIERAGTTEAGAVARALEGASLDTGFHRLTLRAEDHQAIQPLVVMQMARAGTPGAPFDIEGSGYGFRTLKVIPPAQTALPTTCRMARYEGHHHHHH | soluble |
| MAKVSVVMPVYNSEKYLKESIESILNQSYSDLEFIIINDGSTDNSFKIIKEYAKLDKRINVISRENKGIVYSLNEAIRLAKGEYIARMDADDISAPKRIEKQISFLKSHRDIDILGTQVKVVGNISNDIKEKNENKLNIEFDIYDDNREKILNYWYCLAHPSVMFRKDILRELKGYNDFKSEDLDLWLRAIESGFKIYKLKEELIYFRMHEESKTRVDNQNYEGLKDGIKIKLIDVFKREFKKDFKYIVWGASNGGKITKEVLDEFFEKSQCIAFVDKFKTGEFEKIRILHPKDINHIKFDYVFIATEPGKEEAMSSLKSMGLKCIKDFLSTVLEHHHHHH | not soluble |
| MGSDKIHHHHHHMSTLRLLISDSYDPWFNLAVEECIFRQMPATQRVLFLWRNADTVVIGRAQNPWKECNTRRMEEDNVRLARRSSGGGAVFHDLGNTCFTFMAGKPEYDKTISTSIVLNALNALGVSAEASGRNDLVVKTVEGDRKVSGSAYRETKDRGFHHGTLLLNADLSRLANYLNPDKKKLAAKGITSVRSRVTNLTELLPGITHEQVCEAITEAFFAHYGERVEAEIISPNKTPDLPNFAETFARQSSWEWNFGQAPAFSHLLDERFTWGGVELHFDVEKGHITRAQVFTDSLNPAPLEALAGRLQGCLYRADMLQQECEALLVDFPEQEKELRELSAWMAGAVR | not soluble |
| MAHHHHHHMGLLNTKPCSLIPAKEAFEREKKIYDKAILSFDGVNGYDVYNCSVPFTYDGKTYIFGRVEKKDEWVHSNSILFEKVGENRYRRHPTSITYNLEDPFVVKIHGEMVLGGTHVTKNGGKVSDYRCEFYHGTPLNLKYFSSGPSKMKDIRLVELADGKIGVFTHFRTEGSCLTGFATIDKIEDLTVEVINSAKLINHRPFGDAWGGPSQVYLLSSGLLGCISHHGYLLDQKDDIQLRIYACTSFVFDPATYDVYNFKIIGTKGCFPPCEPKLPHLADCAFVSGIEMRDDGKCNLYSGIGDVAEGCIVIDYPFEGYGKIVSDVAF | soluble |
| MGHHHHHHSHMLPPPQPGAAGGSGQPRKCSSRRNAWGNLSYADLITRAIESSPDKRLTLSQIYEWMVRCVPYFKDKGDSNSSAGWKNSIRHNLSLHSRFMRVQNEGTGKSSWWIINPDGGKSGKAPRRRAVSMDNSNKYTKSRGRAAKKKA | soluble |
| MGSKISIINHINTIRYYLKKNEVEDKVEDPAGAAEPESTEAFGTFISPSTGMEFIMAPAGEFLMGSSPEEKGRSYSESPVHRVTIKNPFYIGKYQVTQKQWKTIMGTSPSNFNEDFRPVELVSWEDVQEFIGKLNAMENTTKYRLPSEAEWEYACRAGKQSRYFFGEDESKLGDYAWYARNAGRKTHPAGRKKPNRWGLYDMCGNVWEWVQDSWHEDYNGAPSDGSAWEDGNSSNRVSRGGSWYCSTNSCRSASRFSREPEKHLANLGFRLVKELLEHHHHHH | not soluble |
| MQEIIFIDEGSFPTPEGVTREWVQGAAENRDEDEKLFSIIREAFQIKIDAGVQVPTYPQFRDMIGQFFDIIKDEKNCHEPYVLKEERATILELEAIDEVAKQYKIETGKTLEVRVCIAGPTDMYYQAFGATAFVDVYDILAKDIEKFIKQAFKTAKNFKIKVIALDEIGLGLNDKIQFSDDEIISALTVASTFARQQGADVEIHVYSPLKYELICETPINVIGFEYAGNPSYIDLLDRKVLEDSDAYAGVGISRTDIFSLISIVNEKYGINAWKDKEYMQKIVTELETPDIIKKRLETAYSVLGDRIKYANPDCGLAFWPDQELAFRLLENTAKAVNEFNAEGIINKAAALEHHHHHH | not soluble |
| SGIAVSDDCVQKFNELKLGHQHRYVTFKMNASNTEVVVEHVGGPNATYEDFKSQLPERDCRYAIFDYEFQVDGGQRNKITFILWAPDSAPIKSKMMYTSTKDSIKKKLVGIQVEVQATDAAEISEDAVSERAKKDVK | soluble |
| MQSRWNDTEAETFAAEARARGEPAELGLRVYSSRLIGQDPDLVLHGGGNTSVKIPSPEGMLIHVKGSGWDLGDIEAPGLPAMHLAPLLETRDVPQMSDEEMVALLRAHLLDPAAPTPSVEALLHAYMPQAFVDHTHATAILALADQADMEPVVAELFGGRVGWVPYVMPGYALSHACREAFARDPSVEGLWLEQHGLFTFAETARESYERMIGFVTMAEEHLAARGVPLPGPEANDGTAPERLAADLRAALAARGALGADPSLDFRSSPSIRSYLGRADLPELARRGTATPDHVIRLKPFPMLLEPTAGPAEIEAALDAFEAEYRAYFDRNAPNASEAKIMLDPLPRVVLVPGLGGWGVGANGKAARIAGDLLEQTSRVVNAAETYRRFTPISEGDLFDMEYWSLEQAKLRKA | not soluble |
| MAHHHHHHMADGKAENELMEIEEIAVSDGGAARFAPVEVKSGEEKYNIVWEETGKLLRFDEGENAWKERGQGMAKILQKKEDSGVYMFVFRREGVGKLAAQHYLLRGMTIKVHPQSEKALLWTAFKDYSDDEEGFPERFVLRFASKELADSGLKAFNDALSKTTT | soluble |
| MEATLPVLDAKTAALKRRSIRRYRKDPVPEGLLREILEAALRAPSAWNLQPWRIVVVRDPATKRALREAAFGQAHVEEAPVVLVLYADLEDALAHLDEVIHPGVQGERREAQKQAIQRAFAAMGQEARKAWASGQSYILLGYLLLLLEAYGLGSVPMLGFDPERVRAILGLPSRAAIPALVALGYPAEEGYPSHRLPLERVVLWR | soluble |
| MARIAGVEIPRNKRVDVALTYIYGIGKARAKEALEKTGINPATRVKDLTEAEVVRLREYVENTWKLEGELRAEVAANIKRLMDIGCYRGLRHRRGLPVRGQRTRTNARTRKGPRKTVAGKKKAPRK | soluble |
| MSLSEKPCERVVLDTSVFTNPSVAAVFGDNATSALAQFVILARQVSPRMEFYMPPSVLGELHHFTDAEHLPGDLELVIKLRAPRRHDISVPGMFLYELIEDIRQRIDRGLRVAEKAVREVQPTSVDRTIRWLRDRYRDALRTGLLDSSEDLDVILLAVELDGAVASADRGLLQWAEKGGLRLIPPQRLRSILEHLIENGTAGEEGHHHHHH | soluble |
| MVSRKRRAAQIESSRKGVASIRARCDMEASCSSSQENEASRASTSQCSSPKNLKMENVTILPKTLKLIHDDPKSQVIVSIQFEIEDTKKKISAAILNFNISKKANNAIRSERKRIVATILKTRKHVERFRRLWKKEKKKKEHSEILYKKSQLSKQETIAKFPPMFR | not soluble |
| AIASSAPAPGPAPASLTLWDEEDFQGRRCRLLSDCANVCERGGLPRVRSVKVENGVWVAFEYPDFQGQQFILEKGDYPRWSAWSGSSSHNSNQLLSFRPVLCANHNDSRVTLFEGDNFQGCKFDLVDDYPSLPSMGWASKDVGSLKVSSGAWVAYQYPGYRGYQYVLERDRHSGEFCTYGELGTQAHTGQLQSIRRVQH | soluble |
